Experimental findings from publication PMC8294757 (Science Advances, 2021) are described below.

For this assay, the target named is ELMO1-DOCK5 (1 to 1642) complex (human, UniProt Q9H7D0 1-1642; Q92556 1-727). Put plainly: SPR. (Surface plasmon resonance follows binding to a sensor surface in real time, without labels.)
Chain of ELMO1-DOCK5 (1 to 1642) complex (Q9H7D0 1-1642, chain 1 of 2): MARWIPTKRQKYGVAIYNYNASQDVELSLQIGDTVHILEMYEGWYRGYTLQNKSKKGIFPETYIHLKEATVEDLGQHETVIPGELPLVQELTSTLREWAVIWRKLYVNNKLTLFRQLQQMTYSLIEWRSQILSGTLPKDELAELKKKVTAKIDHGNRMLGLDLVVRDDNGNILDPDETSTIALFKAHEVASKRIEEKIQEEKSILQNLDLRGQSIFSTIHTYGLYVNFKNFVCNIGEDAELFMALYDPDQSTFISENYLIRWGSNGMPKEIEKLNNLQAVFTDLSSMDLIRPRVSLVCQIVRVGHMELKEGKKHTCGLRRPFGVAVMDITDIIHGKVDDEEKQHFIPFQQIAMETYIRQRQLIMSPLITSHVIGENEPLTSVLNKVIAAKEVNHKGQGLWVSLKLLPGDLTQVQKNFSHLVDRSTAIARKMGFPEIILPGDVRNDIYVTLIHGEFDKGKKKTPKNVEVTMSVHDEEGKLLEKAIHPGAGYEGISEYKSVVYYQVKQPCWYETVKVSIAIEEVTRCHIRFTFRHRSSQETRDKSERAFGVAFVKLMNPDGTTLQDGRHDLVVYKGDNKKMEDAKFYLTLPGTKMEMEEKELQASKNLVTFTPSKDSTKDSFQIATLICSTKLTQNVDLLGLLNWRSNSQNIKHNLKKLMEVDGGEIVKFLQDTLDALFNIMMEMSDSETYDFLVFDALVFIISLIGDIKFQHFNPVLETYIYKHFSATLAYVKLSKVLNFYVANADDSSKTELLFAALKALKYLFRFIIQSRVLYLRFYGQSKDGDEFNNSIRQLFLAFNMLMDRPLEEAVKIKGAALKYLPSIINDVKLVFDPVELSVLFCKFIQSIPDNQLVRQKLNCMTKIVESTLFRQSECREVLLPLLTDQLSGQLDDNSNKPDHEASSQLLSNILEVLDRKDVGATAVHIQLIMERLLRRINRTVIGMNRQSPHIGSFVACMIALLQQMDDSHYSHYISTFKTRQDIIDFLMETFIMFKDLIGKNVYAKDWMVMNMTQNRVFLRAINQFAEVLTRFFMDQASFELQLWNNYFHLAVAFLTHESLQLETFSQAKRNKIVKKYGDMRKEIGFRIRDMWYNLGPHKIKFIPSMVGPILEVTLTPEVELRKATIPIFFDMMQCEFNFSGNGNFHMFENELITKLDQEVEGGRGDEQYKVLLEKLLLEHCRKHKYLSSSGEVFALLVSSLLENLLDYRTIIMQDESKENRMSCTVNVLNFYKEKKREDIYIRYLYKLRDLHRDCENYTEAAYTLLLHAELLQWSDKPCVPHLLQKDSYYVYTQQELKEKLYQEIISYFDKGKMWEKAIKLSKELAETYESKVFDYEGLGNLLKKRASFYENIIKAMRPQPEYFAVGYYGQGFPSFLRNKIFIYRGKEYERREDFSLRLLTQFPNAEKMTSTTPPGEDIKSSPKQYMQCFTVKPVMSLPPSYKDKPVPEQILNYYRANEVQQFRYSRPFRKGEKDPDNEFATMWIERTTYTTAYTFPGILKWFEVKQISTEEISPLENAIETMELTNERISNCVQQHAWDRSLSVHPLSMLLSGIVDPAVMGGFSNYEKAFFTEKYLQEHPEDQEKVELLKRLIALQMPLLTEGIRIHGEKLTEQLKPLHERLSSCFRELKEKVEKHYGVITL
Chain of ELMO1-DOCK5 (1 to 1642) complex (Q92556 whole entry, chain 2 of 2): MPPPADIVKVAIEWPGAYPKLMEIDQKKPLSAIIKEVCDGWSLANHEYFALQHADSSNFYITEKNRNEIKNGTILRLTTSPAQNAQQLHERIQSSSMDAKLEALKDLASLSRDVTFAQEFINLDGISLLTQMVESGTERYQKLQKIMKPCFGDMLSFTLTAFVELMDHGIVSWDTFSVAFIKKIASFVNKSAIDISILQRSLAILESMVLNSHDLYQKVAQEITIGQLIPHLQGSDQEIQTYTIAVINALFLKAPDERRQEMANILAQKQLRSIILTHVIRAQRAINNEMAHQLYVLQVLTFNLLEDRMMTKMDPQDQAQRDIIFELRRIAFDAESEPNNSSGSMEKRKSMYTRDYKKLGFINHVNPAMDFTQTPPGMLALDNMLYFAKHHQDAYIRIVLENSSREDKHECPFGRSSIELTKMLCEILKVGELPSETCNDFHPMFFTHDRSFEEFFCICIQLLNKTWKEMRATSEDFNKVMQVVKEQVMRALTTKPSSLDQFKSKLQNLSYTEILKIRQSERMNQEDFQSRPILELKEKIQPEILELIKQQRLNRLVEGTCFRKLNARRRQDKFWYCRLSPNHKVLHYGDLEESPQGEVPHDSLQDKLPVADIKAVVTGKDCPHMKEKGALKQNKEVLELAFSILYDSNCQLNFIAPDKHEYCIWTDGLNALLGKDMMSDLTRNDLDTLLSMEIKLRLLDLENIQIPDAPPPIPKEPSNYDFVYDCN

B1: human RhoG (residues 1 to 184) Q61L mutant, GTP-bound (natural protein)
chain: not shown
In general, Kd refers to the concentration at which binding is half-saturated. The low end stands for tighter binding, the high end for weaker binding. As to B1, the Kd was 10.3 µM.
